Reference: publication PMC6436656

Molecular target: human GPR35 (GPR35a splice variant), receptor part of the hGPR35 SPASM sensors, Q9HC97
Assay: BRET (hGPR35 SPASM sensor)
Conditions: chain shown with the change, highest concentration, read off a plot
[1] = bufrolin, 1e-6 M, parent: est. 1.1
[2] = lodoxamide, 1e-6 M, parent: est. 1.1
[3] = pamoic acid, about 10^-5.5 M, parent: est. 1.0
[4] = zaprinast, 1e-4 M, parent: est. 1.1

Sequence of human GPR35 (GPR35a splice variant), receptor part of the hGPR35 SPASM sensors, Q9HC97 (Q9HC97 whole entry, change not shown, canonical isoform): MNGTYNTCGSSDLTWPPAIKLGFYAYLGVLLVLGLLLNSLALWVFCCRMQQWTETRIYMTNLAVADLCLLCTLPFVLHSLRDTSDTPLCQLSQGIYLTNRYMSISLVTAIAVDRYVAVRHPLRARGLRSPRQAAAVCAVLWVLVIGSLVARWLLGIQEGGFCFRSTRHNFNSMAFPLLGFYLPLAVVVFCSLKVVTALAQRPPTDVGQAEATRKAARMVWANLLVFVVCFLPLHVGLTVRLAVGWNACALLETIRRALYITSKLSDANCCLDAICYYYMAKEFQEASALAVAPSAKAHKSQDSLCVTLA

DTENVRFVFHAVKDTILQENLKDLMLQ [final 27 aa of Gα12, G peptide of the hGPR35-Gα12 SPASM sensor, Q03113 G.H5.23 Ile to Leu] showed a response (BRET ratio (fold change)) [1] of 1.4, a response (BRET ratio (fold change)) [2] of 1.4 and a response (BRET ratio (fold change)) [3] of 1.1. The response (BRET ratio (fold change)) [4] was 1.4.

DTENVRFVFHAVKDTILQENLKQIMLQ [final 27 aa of Gα12, G peptide of the hGPR35-Gα12 SPASM sensor, Q03113 G.H5.22 Asp to Gln] gave a response (BRET ratio (fold change)) [1] of 1.1, a response (BRET ratio (fold change)) [2] of 1.2 and a response (BRET ratio (fold change)) [3] of 1.1. For the same binder, the response (BRET ratio (fold change)) [4] was 1.2.
